One data set concerns the target T1, talin R8 domain (Mus musculus, UniProt P26039).
T1 construct: conducted using 0.1 mM [^15N]talin R8 domain; hexa-histidine tag followed by TEV protease cleavage site (N, cleaved yes); made in house; host or cells: E. coli BL21 STAR (DE3)
Description: 1H,15N-HSQC NMR titration of talin R8 with peptides. The format is binding.

Data set [1] in a line: Solubility of peptides and protein fragments. The format is physicochemical.

Like-named read-outs stand apart in the source and are kept apart here. Ends that are not written are not given here.

T1 sequence (P26039 1461-1580 limits assumed): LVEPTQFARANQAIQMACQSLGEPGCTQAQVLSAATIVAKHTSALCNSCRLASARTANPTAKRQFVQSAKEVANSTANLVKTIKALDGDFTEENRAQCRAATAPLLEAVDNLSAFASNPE
Description for talin R8 domain: NMR spectra were collected on Bruker Avance III 600- and 800-MHz spectrometers equipped with CryoProbes. Experiments were performed at 298 K in 20 mM sodium phosphate (pH 6.5) and 50 mM NaCl with 5% (v/v) ^2H2O. Dissociation constants were evaluated from the ^1H,^15N-HSQC chemical-shift changes in the titration experiments conducted using 0.1 mM [^15N]talin R8 domain. Peptides were added from 5- to 10-mM stock solutions to generate titration points at peptide/protein ratios 0.1, 0.2, 0.5, 0.75, 1, 2, 4, and 8.
NMR Spectroscopy - Spectra were processed with TopSpin (Bruker) and analysed using CCPN Analysis (Vranken et al., 2005). […] The changes in chemical shift of 15N-talin R8 domain were calculated from 1H,15N-HSQC spectra as Δδ=√(ΔδH2+(ΔδN*0.15)2). The cross-peaks corresponding to the bound state were assigned by following chemical shift changes throughout the R8 titration with the increasing amount of peptides.
Dissociation constants were evaluated from the 1H,15N-HSQC chemical shift changes in the titration experiments conducted using 0.1 mM 15N-talin R8 domain. Peptides were added from 5-10 mM stock solutions to generate titration points at 0.1, 0.2, 0.5, 0.75, 1, 2, 4 and 8 peptide:protein ratios.
Concentrations of the DLC1 and RIAM peptides were determined from UV absorbance at 280 nm. […]
Concentration of the R8 domain that lacks UV-active aromatic residues was estimated from the comparison with the spectra of the R3 domain that has similar molecular weight and shape using the calibration procedure described in (Wider and Dreier, 2006). Dissociation constants were determined by fitting the chemical shift changes to the equation:
( ) ( ) [𝑃] + [𝐿] + 𝐾𝑑 − √([𝑃] + [𝐿] + 𝐾𝑑)2 − 4[𝑃][𝐿] where ∆(𝐻, 𝑁)0 is the weighted chemical shift difference at saturation, [P] and [L] are protein and ligand concentrations, respectively. Data were fitted independently for the well-resolved peaks and the average Kd was calculated from 3 different peaks with the lowest standard deviations of the fits. […]

Consider “DLC1(467–489): synthetic DLC1 peptide, residues 467–489; shorter fragment used for crystallization”, for which the “chemical-shift changes / broadening of talin R8 on peptide addition” value with talin R8 domain (1H,15N-HSQC, talin R8, 298 K, pH 6.5, 4-fold excess of peptide (DLC1(467–489), paxillin LD1) or titration) is “large chemical-shift changes”. Further, in data set [1], the solubility result is listed as “less soluble than the longer fragment”.
Turning to “ENEDIFPELDDILYHVKGMQRIVNQWSEK [DLC1(461–489)]”, at talin R8 domain (read-out: KD determined by fitting chemical-shift changes), the Kd came to 48 µM.
Substance MDDLDALLADLESTTS [paxillin LD1] displayed a Kd at talin R8 domain of 168 µM.

Source of the values: publication PMC4938799, “LD Motif Recognition by Talin: Structure of the Talin-DLC1 Complex” (Structure(London, England:1993), 2016).
